T1: Soluble CDCP1 extracellular domain (CDCP1-ECD) (SEQ ID NO:30) fused to Streptavidin Binding Protein (SBP) (human, UniProt Q9H5V8 30-663)
T1 construct: also called SBP-CDCP1-ECD
T1 sequence: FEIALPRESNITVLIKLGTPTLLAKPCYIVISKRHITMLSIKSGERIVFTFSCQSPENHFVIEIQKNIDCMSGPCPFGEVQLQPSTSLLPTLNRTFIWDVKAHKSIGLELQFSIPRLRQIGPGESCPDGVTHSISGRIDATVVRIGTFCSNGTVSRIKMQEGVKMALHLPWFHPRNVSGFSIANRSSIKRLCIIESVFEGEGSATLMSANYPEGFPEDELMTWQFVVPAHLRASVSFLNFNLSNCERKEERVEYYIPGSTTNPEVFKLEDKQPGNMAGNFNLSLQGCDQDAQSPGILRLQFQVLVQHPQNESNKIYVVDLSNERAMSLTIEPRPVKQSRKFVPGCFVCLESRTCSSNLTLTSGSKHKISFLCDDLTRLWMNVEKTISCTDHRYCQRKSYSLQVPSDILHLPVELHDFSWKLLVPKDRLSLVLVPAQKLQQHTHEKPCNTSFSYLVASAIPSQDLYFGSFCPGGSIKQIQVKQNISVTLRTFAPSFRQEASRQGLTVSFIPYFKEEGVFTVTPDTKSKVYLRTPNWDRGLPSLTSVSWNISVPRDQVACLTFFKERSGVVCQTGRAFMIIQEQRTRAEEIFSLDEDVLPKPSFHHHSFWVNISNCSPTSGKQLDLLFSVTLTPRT

T2: extracellular-domain-(ECD)-comprising fragment of human CDCP1 of SEQ ID NO: 30 (human, UniProt Q9H5V8 30-663)
T2 construct: also called CDCP1 ECD; CDCP1-ECD
T2 sequence: T1 sequence

B1: chHC4 / hLC4-f (antibody, V domains shown)
VH: EVQLVESGGDLVKPGGSLKLSCAASGFTFNSYGMSWVRQTPDKRLEWVATISSGGSYTYYPDSVKGRFTISRDNAKNTLYLQMSSLKSEDTAMYYCARHPDYDGVWFAYWGQGTLVTVSA
VL: DIQMTQSPSSLSASVGDRVTITCSVSSSVFYVHWYQQKPGKAPKLLIYDTSKLASGVPSRFSGSGSGTDYTFTISSLQPEDIATYYCQQWNSNPPTFGGGTKVEIK
B2: Humanized CUB4 Antibody No. 91 (antibody, IgG1, V domains shown)
VH: EVQLVESGGGLVQPGGSLRLSCAASGFTFNSYGMSWVRQAPGKGLEWVATISSGGSYKYYVDSVKGRFTISRDNAKNSLYLQMNSLRAEDTAVYYCARHPDYDGVWFAYWGQGTLVTVSS
VL: EIVLTQSPATLSLSPGERATLSCSVSSSVFYVHWYQQKPGQAPRLLIYDTSKLASGIPARFSGSGSGTDFTLTISSLEPEDFAVYYCQQWNSNPPTFGGGTKVEIK
notes: Only variable domains are tied to the antibody; Human constant region, preferably IgG1; also called hHC4-H / hLC-a
B3: hHC4-K / hLC4-d (antibody, V domains shown)
VH: B2 VH with Q13K, A49S, T50S, K58I, V61A
VL: B2 VL with L4M, L13V, D69E, F70Y, E78Q, P79S
B4: hHC4-b / hLC4-c (antibody, V domains shown)
VH: B2 VH with Q13K, G33S, S35N, A49S, T50S, K58I, V61A
VL: B2 VL with L4M, L13V, D69E, E78Q, P79S
B5: hHC4-07 / hLC4-d (antibody, V domains shown)
VH: B2 VH with V5L, G33A, A49S, K58T, V61P, A75S, S78T, R98K
VL: B2 VL with L4M, L13V, D69E, F70Y, E78Q, P79S
B6: hHC4-03 / hLC4-d (antibody, V domains shown)
VH: B2 VH with V5L, A49S, T50A, K58T, V61P, A75S, S78T, R98K
VL: B2 VL with L4M, L13V, D69E, F70Y, E78Q, P79S
B7: hHC4-04 / hLC4-d (antibody, V domains shown)
VH: B2 VH with V5L, A49S, K58T, V61P, A75S, S78T
VL: B2 VL with L4M, L13V, D69E, F70Y, E78Q, P79S
B8: chHC4 / hLC4-I (antibody, V domains shown)
VH: B1 VH
VL: B2 VL with L4M, S24R, V25A, V32L, H33S, L46W, E78Q
B9: hHC4-03 / hLC4-c (antibody, V domains shown)
VH: B2 VH with V5L, A49S, T50A, K58T, V61P, A75S, S78T, R98K
VL: B2 VL with L4M, L13V, D69E, E78Q, P79S
B10: hHC4-H / hLC4-c (antibody, V domains shown)
VH: B2 VH
VL: B2 VL with L4M, L13V, D69E, E78Q, P79S
notes: also called Humanized CUB4 Antibody No. 113
B11: hHC4-I / hLC4-b (antibody, V domains shown)
VH: B2 VH with V5L, G33A, A49S, T50A, K58T, V61A, A75S, S78T, R98K
VL: B2 VL with F70Y
B12: hHC4-b / hLC4-d (antibody, V domains shown)
VH: B2 VH with Q13K, G33S, S35N, A49S, T50S, K58I, V61A
VL: B2 VL with L4M, L13V, D69E, F70Y, E78Q, P79S
B13: hHC4-d / hLC4-d (antibody, V domains shown)
VH: B2 VH with V5L, A49S, K58T, V61P, A75S, S78T, R98K
VL: B2 VL with L4M, L13V, D69E, F70Y, E78Q, P79S
B14: hHC4-04 / hLC4-c (antibody, V domains shown)
VH: B2 VH with V5L, A49S, K58T, V61P, A75S, S78T
VL: B2 VL with L4M, L13V, D69E, E78Q, P79S
B15: hHC4-07 / hLC4-c (antibody, V domains shown)
VH: B2 VH with V5L, G33A, A49S, K58T, V61P, A75S, S78T, R98K
VL: B2 VL with L4M, L13V, D69E, E78Q, P79S
B16: hHC4-H / hLC4-d (antibody, V domains shown)
VH: B2 VH
VL: B2 VL with L4M, L13V, D69E, F70Y, E78Q, P79S
notes: also called Humanized CUB4 Antibody No. 124
B17: hHC4-d / hLC4-c (antibody, V domains shown)
VH: B2 VH with V5L, A49S, K58T, V61P, A75S, S78T, R98K
VL: B2 VL with L4M, L13V, D69E, E78Q, P79S
B18: hHC4-c / hLC4-a (antibody, V domains shown)
VH: B2 VH with K58T, V61P
VL: B2 VL
B19: hHC4-d / hLC4-J (antibody, V domains shown)
VH: B2 VH with V5L, A49S, K58T, V61P, A75S, S78T, R98K
VL: B2 VL with L4M, L21M, S24R, V25A, V32L, L46W, E78Q
B20: hHC4-c / hLC4-c (antibody, V domains shown)
VH: B2 VH with K58T, V61P
VL: B2 VL with L4M, L13V, D69E, E78Q, P79S
B21: hHC4-d / hLC4-a (antibody, V domains shown)
VH: B2 VH with V5L, A49S, K58T, V61P, A75S, S78T, R98K
VL: B2 VL
B22: Humanized CUB4 Antibody No. 102 (antibody, IgG1, V domains shown)
VH: B2 VH
VL: B2 VL with F70Y
notes: Only variable domains are tied to the antibody; Human constant region, preferably IgG1; also called hHC4-H / hLC-b
B23: hHC4-c / hLC4-d (antibody, V domains shown)
VH: B2 VH with K58T, V61P
VL: B2 VL with L4M, L13V, D69E, F70Y, E78Q, P79S
B24: hHC4-d / hLC4-L (antibody, V domains shown)
VH: B2 VH with V5L, A49S, K58T, V61P, A75S, S78T, R98K
VL: B2 VL with L21M, S24R, V25A, V32L, L46W
B25: hHC4-d / hLC4-K (antibody, V domains shown)
VH: B2 VH with V5L, A49S, K58T, V61P, A75S, S78T, R98K
VL: B2 VL with S24R, V25A, V32L, L46W
B26: hHC4-d / hLC4-I (antibody, V domains shown)
VH: B2 VH with V5L, A49S, K58T, V61P, A75S, S78T, R98K
VL: B2 VL with L4M, S24R, V25A, V32L, H33S, L46W, E78Q
B27: hHC4-d / hLC4-L2 (antibody, V domains shown)
VH: B2 VH with V5L, A49S, K58T, V61P, A75S, S78T, R98K
VL: B2 VL with L21M, V32L, L46W
B28: hHC4-d / hLC4-M (antibody, V domains shown)
VH: B2 VH with V5L, A49S, K58T, V61P, A75S, S78T, R98K
VL: B2 VL with L21M, S24G, V25A, V32L, Q41L, L46W, A59D, S76R
B29: hHC4-d / hLC4-b (antibody, V domains shown)
VH: B2 VH with V5L, A49S, K58T, V61P, A75S, S78T, R98K
VL: B2 VL with F70Y
B30: hHC4-c / hLC4-b (antibody, V domains shown)
VH: B2 VH with K58T, V61P
VL: B2 VL with F70Y

Where a chain is given by its changes, count along the chain named.

The first assay addresses T1, Soluble CDCP1 extracellular domain …. Briefly: ELISA on captured SBP-CDCP1-ECD, ratio relative to chimeric CUB4 (chHC4). The gist of the method:
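Streptavidin plates coated overnight at 2–8° C with SBP-CDCP1-ECD HEK293 supernatant (1:15–1:40). Antibodies, undiluted or 12-step dilution, bound 90 min at room temperature; HRP anti-human IgG 1 h, ABTS read at 405/492 nm, signal expressed relative to chimeric chHC4 reference.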
Consider B1, for which the relative binding ratio was found to be 0.24.

Regarding B2, the relative binding ratio was 0.51.

On to B3, for which the binding result was “no binding”.

Take B4: the binding result is reported as “no binding”.

For B5, the relative binding ratio stood at 0.04.

Turning to B6, the relative binding ratio amounted to 0.07.

On to B7, for which the relative binding ratio was found to be 0.41.

As for B8, the binding result was “no binding”.

Consider B9, for which the relative binding ratio amounted to 0.07.

In the case of B10, the relative binding ratio amounted to 0.44.

For the molecule B11, the relative binding ratio was 0.07.

For the molecule B12, the binding result was “no binding”.

In the case of B13, the relative binding ratio is 0.41.

With B14, the relative binding ratio was 0.33.

For the molecule B15, the relative binding ratio was 0.04.

For the molecule B16, the relative binding ratio was 0.34.

On to B17, for which the relative binding ratio was 0.45.

On to B18, for which the relative binding ratio turned out to be 0.34.

Turning to B19, the relative binding ratio is 0.38.

For B20, the relative binding ratio came to 0.29.

In the case of B21, the relative binding ratio came out at 0.34.

Take B22: the relative binding ratio was determined as 0.53.

Take B23: the relative binding ratio amounted to 0.36.

Regarding B24, the relative binding ratio amounted to 0.56.

With B25, the relative binding ratio stood at 0.52.

As to B26, the binding result is given as “no binding”.

Turning to B27, the relative binding ratio stood at 0.49.

Turning to B28, the relative binding ratio turned out to be 0.8.

For B29, the relative binding ratio was 0.38.

Regarding B30, the relative binding ratio was 0.28.

In the next assay the target is T2, extracellular-domain-(ECD)-comprising …. In words: SPR (Biacore T100), antibody captured, CDCP1 ECD as analyte, 25 C, Langmuir 1:1. Here is the method: After conjugation, different anti-CDCP1 antibodies were injected at 25° C. at a flow rate of 5 μL/min, followed by a dilution series (0 nM to 1000 nM) of CDCP1 ECD at 30 μL/min. As running buffer for the binding experiment PBS/0.1% BSA was used. The chip was then regenerated with a 60s pulse of 10 mM glycine-HCl, pH 2.0 solution.
Calculation of thermodynamic parameters (KD, binding constant) and kinetic parameters (kₒₙ rate, koff rate) were calculated using a Langmuir 1:1 binding model.
Turning to B2, the Kd amounted to 5.6 nM, the off-rate constant (koff) is 0.001 s⁻¹, the kon stood at 180000 M⁻¹ s⁻¹ and the t½ diss. worked out at 11.2 min.

On to B22, for which the Kd amounted to 5.4 nM, the koff stood at 0.0011 s⁻¹, the kon was 190000 M⁻¹ s⁻¹ and the t½ diss. was 11 min.
